Square brackets hold non-standard residues; d marks the D form. Ends that are not written are not given here. * marks the point of attachment. Biotin = O=C1N[C@H]2[C@H](CS[C@H]2CCCCC(=O)*)N1
Target: L-19437_(D-Pep-1)
Experiment: ITC; MicroCal PEAQ-ITC, 19 injections; peptide titrated over the binder (L-19437 15 uM, D-Pep-1 150 uM); PBS pH 7.4; One Set of Sites mode

Kd: 48.7 nM
stoichiometry N: 0.938 sites
B1: D-Pep-1 (peptide)
peptide: Biotin-[dD][dE][dH][dE][dL][dL][dE][dT][dA][dA][dR][dW][dF][dY][dE][dI][dA][dK][dR][dA]

From publication PMC11614891
